Values belong to the binder of their own block, whether it stands above or below them.
What was measured:
[1] = target: IL-4Rα on human cells (HEK Blue IL-4/IL-13, A549, TF-1, HFL-1, PBMCs) (human, UniProt P24394 26-825); assay: cell-based or functional assay
hIL-4Rα-Mu244 = target: T1, hIL-4Rα-Mu244 (human, UniProt P24394 26-232); assay: SPR, Biacore T200, by the methods of Example 2
T1 construct: Printed positions fit the mature protein; also called S70Q/A71L/D72R; not shown: C-terminal his-tag
T1 chain: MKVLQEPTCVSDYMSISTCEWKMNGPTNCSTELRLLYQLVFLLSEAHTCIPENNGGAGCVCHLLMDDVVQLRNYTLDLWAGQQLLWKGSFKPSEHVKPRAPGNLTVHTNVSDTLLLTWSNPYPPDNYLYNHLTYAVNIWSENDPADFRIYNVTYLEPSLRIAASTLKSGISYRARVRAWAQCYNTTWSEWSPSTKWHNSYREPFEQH

hIL-4Rα-Mu245 = target: T2, hIL-4Rα-Mu245 (human, UniProt P24394 26-232); assay: SPR, Biacore T200, by the methods of Example 2
T2 construct: Printed positions fit the mature protein; also called A71L/D72R/N73A; not shown: C-terminal his-tag
T2 chain: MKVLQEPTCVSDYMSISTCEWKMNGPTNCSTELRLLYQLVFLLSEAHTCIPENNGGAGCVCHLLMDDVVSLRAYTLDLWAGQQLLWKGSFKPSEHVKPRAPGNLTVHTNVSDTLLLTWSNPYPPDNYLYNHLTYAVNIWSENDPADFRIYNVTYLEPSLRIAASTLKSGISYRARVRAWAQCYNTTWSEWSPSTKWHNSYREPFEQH

hIL-4Rα-Mu241 = target: T3, hIL-4Rα-Mu241 (human, UniProt P24394 26-232); assay: SPR, Biacore T200, by the methods of Example 2
T3 construct: Printed positions fit the mature protein; also called D67A/V68R/V69F; not shown: C-terminal his-tag
T3 chain: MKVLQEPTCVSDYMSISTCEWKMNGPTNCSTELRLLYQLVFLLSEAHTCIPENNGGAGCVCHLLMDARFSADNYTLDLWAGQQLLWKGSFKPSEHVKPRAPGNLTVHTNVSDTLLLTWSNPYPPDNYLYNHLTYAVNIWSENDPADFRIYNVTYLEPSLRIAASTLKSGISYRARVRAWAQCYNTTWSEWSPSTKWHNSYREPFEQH
Description: (§1) The protein A was chemically coupled to a CM5 chip, and an appropriate amount of the antibody was immobilized by a capture method such that the Rmax was less than 50 RU and the flow rate for the capture was 10 μl/min. The antigen was subject to gradient dilution, and the flow rate in the instrument was switched to 30 μl/min. The antigen was flowed through the reference channel and the channel with the immobilized antibody sequentially in an ascending order of concentration, and the running buffer was flowed through as a negative control. After each binding and dissociation was complete, the chip was regenerated with glycine, pH 1.5. Fitting was performed with the build-in software in the instrument according to a 1:1 binding model. The binding rate constant kₐ, the dissociation rate constant kd, and the equilibrium dissociation constant KD values of the antibody were calculated. Dupilumab was obtained by purchasing a commercially available medicine.
(§2) To further narrow down the key amino acids that PD2-31 binds to, multiple mutants of hIL-4Rα were designed in Loop 2 (V40FLLSEA46) and Loop 3 (M65[…]73) (Table 2). The wild-type hIL-4Rα (hIL-4Rα-ECD) and hIL-4Rα mutants were prepared using standard techniques. Briefly, the expression plasmids containing the extracellular domain of wild-type hIL-4Rα and different mutated hIL-4Rα were constructed and transfected into HEK 293F cells. After expression, the extracellular domain of wild-type hIL-4Rα and hIL-4Rα mutants with C-terminus his-tag were purified by Nickel chromatography. Purified proteins of wild-type hIL-4Rα and hIL-4Rα mutants were analyzed for interaction with PD2-31 and Dupilumab. The interaction was studied by Biacore T200, according to the methods in Example 2.

hIL-4Rα-Mu242 = target: T4, hIL-4Rα-Mu242 (human, UniProt P24394 26-232); assay: SPR, Biacore T200, by the methods of Example 2
T4 construct: Printed positions fit the mature protein; also called V68R/V69F/S70Q; not shown: C-terminal his-tag
T4 chain: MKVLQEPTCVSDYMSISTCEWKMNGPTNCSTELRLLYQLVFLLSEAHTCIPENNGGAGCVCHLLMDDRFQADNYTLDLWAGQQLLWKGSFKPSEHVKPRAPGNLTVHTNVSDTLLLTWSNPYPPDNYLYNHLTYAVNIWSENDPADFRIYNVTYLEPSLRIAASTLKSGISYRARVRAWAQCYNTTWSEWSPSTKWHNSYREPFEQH
Description: as §1, §2

hIL-4Rα-Mu243 = target: T5, hIL-4Rα-Mu243 (human, UniProt P24394 26-232); assay: SPR, Biacore T200, by the methods of Example 2
T5 construct: Printed positions fit the mature protein; also called V69F/S70Q/A71L; not shown: C-terminal his-tag
T5 chain: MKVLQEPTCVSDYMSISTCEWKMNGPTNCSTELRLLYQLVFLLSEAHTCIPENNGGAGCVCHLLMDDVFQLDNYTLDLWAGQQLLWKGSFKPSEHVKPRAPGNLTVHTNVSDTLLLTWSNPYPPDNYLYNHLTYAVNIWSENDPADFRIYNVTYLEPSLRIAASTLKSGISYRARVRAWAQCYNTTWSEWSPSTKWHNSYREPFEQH
Description: as §1, §2

hIL-4Rα-Mu453 = target: T6, hIL-4Rα-Mu453 (human, UniProt P24394 26-232); assay: SPR, Biacore T200, by the methods of Example 2
T6 construct: Printed positions fit the mature protein; also called D66A/D67A; not shown: C-terminal his-tag
Description: as §1, §2

hIL-4Rα-Mu239 = target: T7, hIL-4Rα-Mu239 (human, UniProt P24394 26-232); assay: SPR, Biacore T200, by the methods of Example 2
T7 construct: Printed positions fit the mature protein; also called M65I/D66A/D67A; not shown: C-terminal his-tag
T7 chain: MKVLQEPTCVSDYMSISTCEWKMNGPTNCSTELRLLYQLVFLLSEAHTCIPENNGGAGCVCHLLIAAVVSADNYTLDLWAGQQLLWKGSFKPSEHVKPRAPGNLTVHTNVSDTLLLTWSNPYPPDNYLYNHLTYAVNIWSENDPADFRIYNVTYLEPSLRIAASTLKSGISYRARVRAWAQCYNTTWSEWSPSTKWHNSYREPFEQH
Description: as §1, §2

hIL-4Rα-Mu240 = target: T8, hIL-4Rα-Mu240 (human, UniProt P24394 26-232); assay: SPR, Biacore T200, by the methods of Example 2
T8 construct: Printed positions fit the mature protein; also called D66A/D67A/V68R; not shown: C-terminal his-tag
T8 chain: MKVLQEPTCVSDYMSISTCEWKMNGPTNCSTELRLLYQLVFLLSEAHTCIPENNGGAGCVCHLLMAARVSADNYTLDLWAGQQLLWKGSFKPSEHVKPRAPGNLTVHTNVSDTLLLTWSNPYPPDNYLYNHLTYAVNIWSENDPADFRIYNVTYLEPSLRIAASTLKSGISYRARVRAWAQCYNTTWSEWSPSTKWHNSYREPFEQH
Description: as §1, §2

[2] = target: T9, human IL-4Rα (Shanghai Novoprotein Technology Co., Ltd) (human, UniProt P24394 26-232); assay: SPR, Biacore T200, antibody captured on protein A, antigen as analyte, 25 C, 1:1 model
T9 construct: Bought protein; also called hIL-4Rα; human interleukin-4 receptor alpha
Description: as §1

- IC50, IL-4-induced CCL-11 release activity in HFL-1 cells (FIG. 7(A)) [1]: 0.0968 µg/mL
- IC50, IL-4-induced CCL-11 release activity in HFL-1 cells (FIG. 7(B)) [1]: 0.0334 µg/mL
- IC50, IL-4-induced CCL-17 release activity in A549 cells (FIG. 5(A)) [1]: 0.0449 µg/mL
- IC50, IL-4-induced CCL-17 release activity in A549 cells (FIG. 5(B)) [1]: 0.0449 µg/mL
- IC50, IL-4-induced CCL-17 release activity in PBMCs (FIG. 9(A)) [1]: 0.029 µg/mL
- IC50, IL-4-induced CCL-17 release activity in PBMCs (FIG. 9(B)) [1]: 0.0436 µg/mL
- IC50, IL-4-induced STAT6 phosphorylation activity in HEK Blue IL-4/IL-13 cells (FIG. 4(A)) [1]: 0.00439 µg/mL
- IC50, IL-4-induced STAT6 phosphorylation activity in HEK Blue IL-4/IL-13 cells (FIG. 4(B)) [1]: 0.00454 µg/mL
- IC50, IL-4-induced proliferation activity of TF-1 cells (FIG. 6(A)) [1]: 0.0219 µg/mL
- IC50, IL-4-induced proliferation activity of TF-1 cells (FIG. 6(B)) [1]: 0.0188 µg/mL
- IC50, IL-13-induced CCL-11 release activity in HFL-1 cells (FIG. 7(C)) [1]: 0.0475 µg/mL
- IC50, IL-13-induced CCL-11 release activity in HFL-1 cells (FIG. 7(D)) [1]: 0.0869 µg/mL
- IC50, IL-13-induced CCL-17 release activity in A549 cells (FIG. 5(C)) [1]: 0.0373 µg/mL
- IC50, IL-13-induced CCL-17 release activity in A549 cells (FIG. 5(D)) [1]: 0.0465 µg/mL
- IC50, IL-13-induced CCL-17 release activity in PBMCs (FIG. 9(C)) [1]: 0.0984 µg/mL
- IC50, IL-13-induced CCL-17 release activity in PBMCs (FIG. 9(D)) [1]: 0.082 µg/mL
- IC50, IL-13-induced STAT6 phosphorylation activity in HEK Blue IL-4/IL-13 cells (FIG. 4(C)) [1]: 0.0128 µg/mL
- IC50, IL-13-induced STAT6 phosphorylation activity in HEK Blue IL-4/IL-13 cells (FIG. 4(D)) [1]: 0.0127 µg/mL
- IC50, IL-13-induced proliferation activity of TF-1 cells (FIG. 6(C)) [1]: 0.0205 µg/mL
- IC50, IL-13-induced proliferation activity of TF-1 cells (FIG. 6(D)) [1]: 0.0149 µg/mL
- Kd (hIL-4Rα-Mu244): > 10 nM
- Kd (hIL-4Rα-Mu245): > 10 nM
- Kd (hIL-4Rα-Mu241): 41.2 nM
- koff (hIL-4Rα-Mu241): 0.00444 s⁻¹
- kon (hIL-4Rα-Mu241): 108000 M⁻¹ s⁻¹
- Kd (hIL-4Rα-Mu242): 27.3 nM
- koff (hIL-4Rα-Mu242): 0.00357 s⁻¹
- kon (hIL-4Rα-Mu242): 131000 M⁻¹ s⁻¹
- Kd (hIL-4Rα-Mu243): 0.0361 nM
- koff (hIL-4Rα-Mu243): 3.41e-05 s⁻¹
- kon (hIL-4Rα-Mu243): 945000 M⁻¹ s⁻¹
- Kd (hIL-4Rα-Mu453): 0.196 nM
- koff (hIL-4Rα-Mu453): 3.78e-05 s⁻¹
- kon (hIL-4Rα-Mu453): 193000 M⁻¹ s⁻¹
- Kd (hIL-4Rα-Mu239): 0.223 nM
- koff (hIL-4Rα-Mu239): 5.63e-05 s⁻¹
- kon (hIL-4Rα-Mu239): 253000 M⁻¹ s⁻¹
- Kd (hIL-4Rα-Mu240): 4.07 nM
- koff (hIL-4Rα-Mu240): 0.000421 s⁻¹
- kon (hIL-4Rα-Mu240): 103000 M⁻¹ s⁻¹
B1: Dupilumab (antibody, V domains shown)
VH: EVQLVESGGGLEQPGGSLRLSCAGSGFTFRDYAMTWVRQAPGKGLEWVSSISGSGGNTYYADSVKGRFTISRDNSKNTLYLQMNSLRAEDTAVYYCAKDRLSITIRPRYYGLDVWGQGTTVTVSS
VL: DIVMTQSPLSLPVTPGEPASISCRSSQSLLYSIGYNYLDWYLQKSGQSPQLLIYLGSNRASGVPDRFSGSGSGTDFTLKISRVEAEDVGFYYCMQALQTPYTFGQGTKLEIKR

- IC50, IL-4-induced CCL-11 release activity in HFL-1 cells (FIG. 7(B)) [1]: 0.0643 µg/mL
- IC50, IL-4-induced CCL-17 release activity in A549 cells (FIG. 5(B)) [1]: 0.0461 µg/mL
- IC50, IL-4-induced CCL-17 release activity in PBMCs (FIG. 9(B)) [1]: 0.0678 µg/mL
- IC50, IL-4-induced STAT6 phosphorylation activity in HEK Blue IL-4/IL-13 cells (FIG. 4(B)) [1]: 0.0065 µg/mL
- IC50, IL-4-induced proliferation activity of TF-1 cells (FIG. 6(B)) [1]: 0.0193 µg/mL
- IC50, IL-13-induced CCL-11 release activity in HFL-1 cells (FIG. 7(D)) [1]: 0.0895 µg/mL
- IC50, IL-13-induced CCL-17 release activity in A549 cells (FIG. 5(D)) [1]: 0.0495 µg/mL
- IC50, IL-13-induced CCL-17 release activity in PBMCs (FIG. 9(D)) [1]: 0.117 µg/mL
- IC50, IL-13-induced STAT6 phosphorylation activity in HEK Blue IL-4/IL-13 cells (FIG. 4(D)) [1]: 0.0213 µg/mL
- IC50, IL-13-induced proliferation activity of TF-1 cells (FIG. 6(D)) [1]: 0.0161 µg/mL
- Kd [2]: 0.207 nM
- koff [2]: 9.9e-05 s⁻¹
- kon [2]: 481000 M⁻¹ s⁻¹
B2: QX005N (HZD82-12) (antibody, V domains shown)
VH: EVQLVESGGGLVQPGGSLRLSCAASGFSLNSNAVGWVRQAPGKGLEYIGFINFSGITYYANWAKGRFTISRDNSKNTLYLQMNSLRAEDTAVYYCARGSAGSFDLWGQGTLVTVSS
VL: DIQMTQSPSSLSASVGDRVTITCQASESVYKNNYLAWYQQKPGKAPKLLIYRASNLASGVPSRFSGSGSGTDFTLTISSLQPEDFATYYCQGGYSSGMYPFGQGTKVEIK
notes: Humanized from rabbit clone #82, expressed as a full antibody in ExpiCHO-S cells (heavy chain 48.3 kDa, light chain 23.6 kDa)

Reference: patent US20220073631A1 (QYUNS THERAPEUTICS, published 2022)
